Data on 1 substance can be found in PMC6983471.

Assay [1] concerns the target VEK50[RH1/AA] (VEK50^ΔRH1), VEK50 with R17H18 replaced by Ala-Ala (Streptococcus pyogenes (isolate AP53)). Kind of assay: ITC.
Assay [2] concerns the target VEK50[RH2/AA] (VEK50^ΔRH2), VEK50 with R30H31 replaced by Ala-Ala (Streptococcus pyogenes (isolate AP53)). Kind of assay: ITC.
Assay [3] deals with VEK50[RH1/AA] (VEK50^ΔRH1), VEK50 with R17H18 replaced by Ala-Ala (Streptococcus pyogenes (isolate AP53)). Kind of assay: NMR titration.
The target in assay [4] is VEK50[RH2/AA] (VEK50^ΔRH2), VEK50 with R30H31 replaced by Ala-Ala (Streptococcus pyogenes (isolate AP53)). Description: NMR titration.
Assay [5] deals with VEK50[RH1/AA] (VEK50^ΔRH1), VEK50 with R17H18 replaced by Ala-Ala (Streptococcus pyogenes (isolate AP53)). Description: AUC.
Assay [6] concerns the target VEK50[RH2/AA] (VEK50^ΔRH2), VEK50 with R30H31 replaced by Ala-Ala (Streptococcus pyogenes (isolate AP53)). Description: AUC.

Regarding “K2hPg, kringle 2 domain of human plasminogen, triple variant C4G/E56D/L72Y (domain or fragment)”, the dissociation constant Kd in assay [1] was 9 nM; in assay [2], 42 nM. In addition, the stoichiometry N (K2hPg per peptide) in assay [1], in assay [2], in assay [3], in assay [4], in assay [5] and in assay [6] was 1 in each case.
